Reference: the nanobody polyreactivity screen of Harvey et al. (2022)

Assay: yeast display, Sf9 membrane polyspecificity reagent, FACS + sequencing; frameworks hold sequencing errors
Method in brief: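 Nanobodies came from a synthetic yeast display library in Saccharomyces cerevisiae BJ5465, induced with galactose for 36–48 hours and stained for 1 hour at 4 °C with 10% biotinylated, detergent-solubilized Sf9 membrane reagent. Cells were enriched on streptavidin microbeads and then FACS-sorted, with low and high (top ~1%) gates set on anti-HA fluorescence for expression and streptavidin fluorescence for reagent binding. Each polyreactivity label reflects the gate a clone came from. Genes were amplified by colony PCR, sequenced by MiSeq 2 × 250 and filtered by CDR length.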

QVQLVESGGGLVHAGGSLRLSCAASGYTFRYYAKGWYRQAPGKERELVAAINSGDITNYADSVKGRFTITRDNAKTTVYLQMNSLKPEDTAVYFCARSTFSLYDYWGQGTQVTVSS
polyreactivity (PSR sort gate): low polyreactivity

QVQLVESGGGLVQAGGSLRLSCAASGRTFFLYAMGWYRQAPGKEREFVATISYGGGSTYYADSVKGRFTISRDNAKNTVYLQMNSLKPEDTAVYYCNALNTSQYAEGTSDYDGNMGYWGQGTQVTVSS
polyreactivity (PSR sort gate): low polyreactivity

QVQLVESGGGLVQAGGSLRLSCAASGSTFWKYVMGWYRPAPGKERELVAAITSRGGSTYADSVKGRFTISRDNAKNTVYLLMNSLKPEDTAVYYCAATKFWYYGYDYWGQGTQVTVSS
polyreactivity (PSR sort gate): low polyreactivity

QVQLVESGGGLVQAGGSLRLSCAASGRIFWYNAMGWSRQAPGKESELVAAISWRGSRTYYADSVKGRFTISRDNAKNTVYLQMNSLKPEDTAVYYCAADPDVYAYYGYDYWGQGTQVTVSS
polyreactivity (PSR sort gate): high polyreactivity

QVQHVESGGGLVQAGGSLRLSSAASGNTINSNAMGWYRQSPGKEREFVAAISGSGSSTYYADSVKGRFTISRDYAKNTVYLQMNSLNPEDTAVYYCAARWGYFGSFDYWGQGTQVTVSS
polyreactivity (PSR sort gate): high polyreactivity

QVQLVDSGGGLVQAGGSLRLSCAASGRTILINAMGWDRQAPGKERELVAGITRNGGTTYYADSVKGRFTISRDNAKNTVYLQMNSLKPEDTAVYYCAKRYPSWFNYWGQGTQVTVSS
polyreactivity (PSR sort gate): high polyreactivity

QVQLVESGVVLDQAGGILRLSCAASGFIFARYDMGWYRQAPGKERELVATISYTGGRTYYADSVKGRFTISRDNAKNTVYLQMNSLKPEDTAVYYCAAVVQSSEPVEYDYWGQGTQVTVSS
polyreactivity (PSR sort gate): high polyreactivity

QVQLVESGGGLVQAGGSLRLSCAASGRIFINYAMGWYRQAPGKERELVAAITTNGGSTYYADSVKGRFTISRDNAKYTVYLQMNSLKPEDTAVYYCAARRRYKMDYWGQGTQVTVSS
polyreactivity (PSR sort gate): high polyreactivity

QVQLVESGGGLVQAGGSLRLSCAASGSTLAIYAMGWYRQAPGKERELVAAISGGGSTYADSVKGRFTISRDNAKNTVYLQMNSLKPEETAVYYCNADGWGDRFWSNFRFDYWGQGTQVTVSS
polyreactivity (PSR sort gate): low polyreactivity

PVQLVESGGGLVQAGGSLRLSCAASGRILPSNAMGWYRQAPGKERELVAGITSGGSTDYADSVKGRFTISRDNAKNTVYLQMNSLNPVDTAVYYCAARYFHHYWGDLEVEFEYWGQGTQVTVSS
polyreactivity (PSR sort gate): low polyreactivity

QVQLVETGGGLVQAGGSLRISCAPSGSTFAGYAMGWYRQAPGKERELVAAISYSGGTTYYADSVKGRFTISRDNAKNTVYLQMNSLKPEDTAVYYCAARKKYKTPSNDMYYWGQGTQVTVSS
polyreactivity (PSR sort gate): high polyreactivity

QVQLVESGGGLVQAGGSLRLSCAASGSNFNRYAMGWYRQAPGKERELVAAISRSGGRTYYADSVKGRFTISRDNAKNTVYLQMNSLKPEDTAVYYCAAGGRWFYIDDDWGQGTQVTVSS
polyreactivity (PSR sort gate): high polyreactivity

QVQLVESGGGLVQAGGSLRLSCAASGFTFSSNAMGWYRQAPGKERELVADINWSGGRTYYADSVKGRFTISRDNAKYTVYLQMNSLKPEDTAVYYCAAVLSWRQYYREYDYWGQGTQVTVSS
polyreactivity (PSR sort gate): high polyreactivity

QVLLVESGGGLVQAGGSLRLSCAASGSIFWGYDMGWYRQAPGKDSELVAVISWSTTSTYFADSVKGRFTISRDNANNTVYLLMNSLKAEDTAVYYCNSEAYQYWEFDYWGQGTQVTVSS
polyreactivity (PSR sort gate): low polyreactivity

QVQLVESGGGLVQAGGSLRLSCAASGFTFRTNAMGWYRQAPGKERELVAVISRRGGSTYYADSVKGRFTISRDNAKNTVYLQMNSLKPEDTGVYYCNAGDGTVGRTYYRAYDYWGQGTQVTVSS
polyreactivity (PSR sort gate): high polyreactivity

QVQLVESGGGLVQAGGSLRLSCAASGSTSRYYDMGWYRQAPGKERELVATITISGITNYADSLKGRFTISRDNAKNTVYLQMNSLKPEDTAVYYCATVGPWPGEYDYWGQGTQVTVSS
polyreactivity (PSR sort gate): low polyreactivity

QVQLVESGGGLVQAGGSLRLSCAASGSIFVTYAMGWYRQAPGKERELVAAINYSGGSTYYADSVKGRFTISRDNAKNTVYLQMNSLKPEDTAVYYCAADERVDQGWIRMDYWGQGTQVTVSS
polyreactivity (PSR sort gate): low polyreactivity

QVQLVESGGGLVQAGGSLRLSCAASGRTFNIYDMGGYIPAPGTERELVAAITGRGTGTYYADSVKGRFTISRDNAKNTVYLQMNSLKPEDTAVYFCAAVRRWYYPALSEHDYWGQGTQVTVSS
polyreactivity (PSR sort gate): low polyreactivity

QVQLVESGGGLVQAGGSLRLSCAASGRTFPGYAMGWYRQAPGKERELVAGISYRGGSTYYADSVKGRFTISRDIAKNTVYLQMNSLKPEDTAVYYCAREYSRHKGDYWGQGTQVTVSS
polyreactivity (PSR sort gate): low polyreactivity

QVQLVESGGGLVQAGGSLRLSCAASGFTFRRYAMGWYRQAPGKERELVAAISIRGGRTYYADSVKGRFTISRDNAKNTVYLQMNSLKPEDTAVYYCAAEVGFWGYGGYYYWGQGTQVTVSS
polyreactivity (PSR sort gate): high polyreactivity

QVQLVESGGGLVQAGGSLRLSCAASGFTLRYYAMGWSRQAPVKERELVATIKRSGASTYYADSVKGRFTISRDNSKNTVYLQMNSLKPEDTAVYYCNTATSRAYRYDYWGQGTQVTVSS
polyreactivity (PSR sort gate): high polyreactivity

QVQLVESGGGLVQAGGSLRLSCAASGITFPYYAMGWYRQAPGKERELVAAITIRSGRTYYADSVKGRFTISRDNAMNTVYLQMNSLKPEDTAVYYCAARLSNTYGYWGQGTQVTVSS
polyreactivity (PSR sort gate): high polyreactivity

QVQLVESGGGLVQAGGSLRLSCAASGSIFDFNTMGWYIQAPGKERELVAAISQRTGRTYYADSVKGRFTISRDKAKNTVYLQMNSLKPEDTAVYYCAKVAVAGRGSGNYINHRFEYWGQGTQVTVSS
polyreactivity (PSR sort gate): high polyreactivity

QVQLVESGGGLVQAGGSLRLSCAASGSIFSFNVMGWYRQAPGKEREMVATITGGGSTNYADSVKGRFTISRDNAKNTVYLQMNSLKPEDTAVYYCNKRNRWTPFYTYDYWGQGTQVTVSS
polyreactivity (PSR sort gate): low polyreactivity

QVQLVESGGGLVQAGGSLRLSCAASGIILLRYTMGWYRQAPGKERELVAAISRSAGRTYYADSVKGRFTISRDNAKNTVYLQMNSLKPEDTAVYYCNKASWYNGEIDYWGQVTQVTVSS
polyreactivity (PSR sort gate): high polyreactivity

QVQLVESGGGLVQAGGSLRLICAASGLTFDYYDMGWYRQAPGKERELVASITWRGSSTYYADSVKGRFTISRDNAKNTVYLQMISLKPEDTAVYYCAARYRWSEWRPYYYWGQGTQVTVSS
polyreactivity (PSR sort gate): high polyreactivity

QVHLQESGSGLVQAGGSLRLSCAASGAIFPAYLMGWYRQAPGKERELVAGSSYGSITYCADSVKGRFNISRDNAKNTVYLQMNSLKPEDTAVYYCAVLRPGGDEYYYWGQGTKVTVSS
polyreactivity (PSR sort gate): low polyreactivity

QVQLEESGGGLVQAGGSLRLSCAASGSIFGAYTMGWYRQAPGKERELVAAISIGGSKNYADSVKGRFTISRDNAKNTVYLQMNSLKPEDTAVYYCNAEPDLEDWWWAIGLYDYWGQGTQVTVSS
polyreactivity (PSR sort gate): high polyreactivity

QVQLVYSGGGLVKAGGTLRLSCAASGSTFTPNAMGWYRQAPGKERELVAAINWSDSSTYYADSVKGRFTISRDNAKNTVYLQMNSLIPEDTAVYYCAAAAQYGQLQVPVYYWGEGTQVTVSS
polyreactivity (PSR sort gate): low polyreactivity

QVQLVESGGGLVQAGGSLRLSCAASGSTFYQNAMGWYRQAPGKERELVAAISGGSDTYYADSVKGRFTISRDNAKNTVYLQMNSLKPEDTAFYYCAADVASSEGKSWTLKDEYDYWGQGTQVTVSS
polyreactivity (PSR sort gate): low polyreactivity

QVQLVESGGGLVQAGGSLRLSCAASGSIFSAYGMGWYRQAPGKERELVAAITRSGGSTYYADSVKGRFTISRDNAKNTVYLQMNSLKPEDTAVYYCAAKSIIRPYAPRRDDMDYWGQGTQVTVSS
polyreactivity (PSR sort gate): low polyreactivity

QVQLVESGGGLVQAGGILRLSCAASGSTFSPYAMGWYRQAPGKERELVANITISGGSTYYADSVKGRFTISRDNAKNTVYLQMNSLKAEDTAVYYCNADSLIRWLFTVVIFDYWGQGTQVTVSS
polyreactivity (PSR sort gate): low polyreactivity

QVQLEESGGGLVQAGGSLRLSCAASGRIFRANSMGWYRQEPGKERELVAAISFSGGGTYYADSVKGRFKISRDNAKNTVYLQMNCLKPEDTAVYYCAADWYVYSPYDYWGQGTQVTVSS
polyreactivity (PSR sort gate): low polyreactivity

QVQLVESGGGLVQAGGSLRLSCAASGSTFGYYAMGWYRQAPGKERELVAAITDSGGITHYADSVKGRFTISRDNAKNTVYLQMNSLKPEDTAVYYCYARYLGYGWFDYWGQGTQVTVSS
polyreactivity (PSR sort gate): low polyreactivity

QVQLVESGGGLVQAGGSLRLSCAASGSTFITNIMGWYRQAPGKERELVAAISYIDGTTYYADSVKGRFTISRDNAKNTVYLQMNSLKPEDTAVYYCAAYPYLYPLRFEEYDHWGQGTQVTVSS
polyreactivity (PSR sort gate): low polyreactivity

QVQLVESGGCLVQAGGSHRLSCAASGSIFYIYAMGWYRQAPGKERELVASITFSGDITYYAYSVKGRFTISRDNAKNTFYLHMNSLKPEDTAVYYCAADYHEQSYAVTYDYWGQGTQVTVSS
polyreactivity (PSR sort gate): low polyreactivity

QVHLVESGGGLVQAGGSLRLSCAASGRIFGTYVMGWYRQAPGKERELVARITGGGSTNYADSVKGRFTISRDNAKNTVYLQMNSLKPEDTAVYYCARDYGPYLSPENPAPMDYWGQGTQVTVSS
polyreactivity (PSR sort gate): low polyreactivity

QVQLVESGGGLVQAGGSLSLSCAASGNIFTIYAMGWYRKAPGKERELVARITWGGGNTYYADSVKGRFTISRDNAKNTVYLQMNSLKPEDSAVYYCNAVGPYDYRYGKYDYWGLGTQVTVSS
polyreactivity (PSR sort gate): low polyreactivity

QVQLVESGGGLVQAGVSLRLSCAASGSTFTTNVMGWYIQAPGKERELVAAISWSSGSTYYADSVKGRFTISRDNAKNTVYLQMNSLKPEDTAVYYCAARLVIFYPYSRYYYWGQGTQVTVSS
polyreactivity (PSR sort gate): high polyreactivity

QVQLVESGGGLVQAGGSLRLSCAASGRIISYNAMGWYRQAPAKERELVAAISWGGGSTYYADSVKGRFTISRDTAKNTVYLQMNSLKPEDTAVSYCAKGWYRIKRNDYWGQGTQVTVSS
polyreactivity (PSR sort gate): low polyreactivity

QVQLVESGGGLVQAGGSLRLSCAASGRTFRPYAMGWYRQAPGKERELVAAISSRGSSTYYADSVKGRFTISRDNAKNTVYLQMNSLKPEDTAVYYCAARSYWGGLRYDYWGQGTQVTVSS
polyreactivity (PSR sort gate): high polyreactivity

QVQLVESGGGLVQAGGSLRLSCAASGLTFSPNAMGWYRQAPGKERELVAAITRSGSTTHYADSVKGRFTISRDNAKNTVYLQMNSLKPEDTAVYYCARRYYGPYDYWGQGTQVTVSS
polyreactivity (PSR sort gate): high polyreactivity

PVKLVESGGGLVQAGGSLRLSCAASGFTFFRNAMGWYRQAPGKERELVAAISGSGGRTYDADSVKGRFTISRDNAKNPVYLQLNSLKLEDTAVYYCAAVPVDPGYDYWGQGTQVTVSS
polyreactivity (PSR sort gate): high polyreactivity
